Test results: patent US5688911A, “Trk neurotrophin binding motifs” (priority 1995, dated 1997)
No end group written: not given here.

Experiments:
NT-4 = biological target: T1, NT-4 (Xenopus laevis, UniProt P24727); experiment: Qualitative binding assay, receptor affinity, 125I-NT-4; parameters: key to 125I-Neurotrophin NTA binding (qualitative): +neurotrophin binding; -no neurotrophin binding detectible
T1 sequence (P24727 114-236): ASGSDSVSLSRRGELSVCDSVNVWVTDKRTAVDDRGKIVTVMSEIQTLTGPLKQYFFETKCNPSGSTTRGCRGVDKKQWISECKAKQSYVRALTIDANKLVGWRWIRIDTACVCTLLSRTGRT

rat TrkB = biological target: T2, rat TrkB (Rattus norvegicus, UniProt Q63604); details: mouse NIH 3T3 fibroblasts expressing rat TrkB; cited from earlier work
T2 construct: host or cells: mouse NIH 3T3 fibroblasts (transfected)
T2 sequence (Q63604 32-821): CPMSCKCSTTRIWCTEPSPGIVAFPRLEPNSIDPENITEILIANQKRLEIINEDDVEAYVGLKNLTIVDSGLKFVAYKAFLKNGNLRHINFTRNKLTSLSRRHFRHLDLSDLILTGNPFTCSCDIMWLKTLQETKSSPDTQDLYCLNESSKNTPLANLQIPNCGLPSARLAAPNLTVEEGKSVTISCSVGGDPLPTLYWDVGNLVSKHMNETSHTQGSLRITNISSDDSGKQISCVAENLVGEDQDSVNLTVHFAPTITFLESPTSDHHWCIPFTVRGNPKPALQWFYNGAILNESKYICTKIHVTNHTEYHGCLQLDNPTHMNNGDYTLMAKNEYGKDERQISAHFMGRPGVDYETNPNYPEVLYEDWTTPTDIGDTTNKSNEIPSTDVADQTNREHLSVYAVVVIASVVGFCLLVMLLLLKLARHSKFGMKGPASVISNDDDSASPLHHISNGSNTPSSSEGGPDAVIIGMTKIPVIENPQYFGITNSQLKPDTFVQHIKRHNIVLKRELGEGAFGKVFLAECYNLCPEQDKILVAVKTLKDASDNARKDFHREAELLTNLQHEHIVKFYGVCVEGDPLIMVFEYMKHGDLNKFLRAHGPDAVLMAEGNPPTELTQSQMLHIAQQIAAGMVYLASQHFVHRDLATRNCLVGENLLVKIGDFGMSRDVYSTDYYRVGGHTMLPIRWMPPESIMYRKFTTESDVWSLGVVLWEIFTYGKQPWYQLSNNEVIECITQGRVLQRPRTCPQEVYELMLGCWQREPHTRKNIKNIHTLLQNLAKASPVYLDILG

TrkB receptors = details: non-neuronal cells ectopically expressing TrkB; read-out: affinities; cited from earlier work
NT-3 = biological target: T3, NT-3 (Mus musculus, UniProt P20181); experiment: Qualitative binding assay, receptor affinity, 125I-NT-3; parameters: key: A "+" indicates binding of the neurotrophin in a qualitative binding assay using receptor affinity columns (no Kd determined); A "-" indicates that no binding of the neurotrophin to the respective receptor module could be detected
T3 sequence (P20181 140-258): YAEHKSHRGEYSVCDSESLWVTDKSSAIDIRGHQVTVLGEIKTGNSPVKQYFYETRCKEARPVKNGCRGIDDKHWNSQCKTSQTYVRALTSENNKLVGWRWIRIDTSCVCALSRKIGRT

BDNF = biological target: T4, BDNF (Mus musculus, UniProt P21237); experiment: Qualitative binding assay, receptor affinity, 125I-BDNF; parameters: key: A "+" indicates binding of the neurotrophin in a qualitative binding assay using receptor affinity columns (no Kd determined); A "-" indicates that no binding of the neurotrophin to the respective receptor module could be detected
T4 sequence (P21237 131-249): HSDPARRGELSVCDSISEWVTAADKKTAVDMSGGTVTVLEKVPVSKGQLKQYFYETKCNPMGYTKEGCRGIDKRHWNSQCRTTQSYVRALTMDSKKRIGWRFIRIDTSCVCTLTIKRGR

NGF = biological target: T5, NGF (Mus musculus, UniProt P01139); experiment: Qualitative binding assay, receptor affinity, 125I-NGF; parameters: key: +neurotrophin binding; -no neurotrophin binding detectible; details: Table 2
T5 construct: Mouse submaxillary gland NGF-β, was purchased from Sigma Immuno Chemicals; purchased Amersham (125I-NGFβ); Sigma Immuno Chemicals (unlabelled NGF-β); host or cells: mouse submaxillary gland
T5 sequence (P01139 122-241): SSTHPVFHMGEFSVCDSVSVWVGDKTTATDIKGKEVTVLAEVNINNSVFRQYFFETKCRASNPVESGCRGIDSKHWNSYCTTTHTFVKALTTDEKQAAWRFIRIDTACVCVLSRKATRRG

TIKNSGLRSIQPRAFAKNPHLRYI (SEQ ID NO:3) (TIKNSGLRSIQPRAFAKNPHLRYI) [LRM2 of TrkC, 24 amino acid second leucine rich motif of TrkC]
binding of neurotrophin-4 (NT-4; data not shown): found to bind neurotrophin-4

NT-3: neurotrophin 3; iodinated form in binding studies
Kd (rat TrkB): ~1.3 nM | Kd (TrkB receptors): ~1 nM

TIVKSGLRFVAPDAFHFTPRLSHL (SEQ ID NO: 4) (TIVKSGLRFVAPDAFHFTPRLSHL; also: MBP fusion partner) [TrkA L2, isolated 24 amino acid second leucine-rich motif of rat TrkA (Thr97-Leu120), MBP fusion]
NT-3 binding (qualitative) (NT-3): - | BDNF binding (qualitative) (BDNF): -

TIVDSGLKFVAYKAFLKNGNLRHI (SEQ ID NO: 5) [TrkB L2]
125I-Neurotrophin NGF binding (qualitative) (NGF): - | 125I-Neurotrophin NTA binding (qualitative) (NT-4; Table 2): +

B1: BDNF: Brain-derived neurotrophic factor, a neurotrophin; iodinated form in binding studies (protein, UniProt P23560 19-247, looked up)
Neurotrophic factor BDNF …: APMKEANIRGQGGLAYPGVRTHGTLESVNGPKAGSRGLTSLADTFEHVIEELLDEDQKVRPNEENNKDADLYTSRVMLSSQVPLEPPLLFLLEEYKNYLDAANMSMRVRRHSDPARRGELSVCDSISEWVTAADKKTAVDMSGGTVTVLEKVPVSKGQLKQYFYETKCNPMGYTKEGCRGIDKRHWNSQCRTTQSYVRALTMDSKKRIGWRFIRIDTSCVCTLTIKRGR
modifications: 125I label
Kd (rat TrkB): ~1.8 nM | Kd (TrkB receptors): ~1 nM
